Experimental data reported in patent publication US20260193335A1 (ZOETIS SERVICES, published 2026).
Numbering of substitutions follows the chain as printed.

B1: mAb6 anti-TGFβ antibody ZTS-310, wildtype (antibody, IgG1a)
heavy: QVLLVQSGAEVRRPGASVKIFCKASGYSFTSSWMNWLRQAPAQGFEWMGQIYPGDGDTNYNGKFKGRLTLTADTSTDTAYMELSSLRSADTAVYYCARHYDGSTDYWGHGTIVTVSSASTTAPSVFPLAPSCGTTSGATVALACLVLGYFPEPVTVSWNSGALTSGVHTFPAVLQASGLYSLSSMVTVPSSRWLSDTFTCNVAHPPSNTKVDKTVRKTDHPPGPKPCDCPKCPPPEMLGGPSIFIFPPKPKDTLSISRTPEVTCLVVDLGPDDSDVQITWFVDNTQVYTAKTSPREEQFNSTYRVVSVLPILHQDWLKGKEFKCKVNSKSLPSPIERTISKAKGQPHEPQVYVLPPAQEELSRNKVSVTCLIKSFHPPDIAVEWEITGQPEPENNYRTTPPQLDSDGTYFVYSKLSVDRSHWQRGNTYTCSVSHEALHSHHTQKSLTQSPGK
light: AITMTQSPGSLAGSPGQQVTMNCRASENIYSNLAWYQQKPGQHPKLLIYAATNLADGVPDRFSGSGSGTDFTLTISNLQAEDVASYYCQHFWGTPYTFGGGTK
notes: 'Feline IgG1a subclass B was used'; The listing names the entries heavy chain and light chain; also called mAb6 ID No. 1; ZTS-310 WT
B2: mAb6 anti-TGFβ antibody ZTS-120-1, wildtype (antibody)
heavy: QVQLVQSGAEVKKPGSSVKVSCKASGYTFSSNVISWVRQAPGQGLEWMGGVIPIVDIANYAQRFKGRVTITADESTSTTYMELSSLRSEDTAVYYCASTLGLVLDAMDYWGQGTLVTVSSASTTAPSVFPLAPSCGTTSGATVALACLVLGYFPEPVTVSWNSGALTSGVHTFPAVLQASGLYSLSSMVTVPSSRWLSDTFTCNVAHPPSNTKVDKTVRKTDHPPGPKPCDCPKCPPPEMLGGPSIFIFPPKPKDTLSISRTPEVTCLVVDLGPDDSDVQITWFVDNTQVYTAKTSPREEQFNSTYRVVSVLPILHQDWLKGKEFKCKVNSKSLPSPIERTISKAKGQPHEPQVYVLPPAQEELSRNKVSVTCLIKSFHPPDIAVEWEITGQPEPENNYRTTPPQLDSDGTYFVYSKLSVDRSHWQRGNTYTCSVSHEALHSHHTQKSLTQSPGK
light: ETVLTQSPGTLSLSPGERATLSCRASQSLGSSYLAWYQQKPGQAPRLLIYGASSRAPGIPDRFSGSGSGTDFTLTISRLEPEDFAVYYCQQYADSPITFGQGTKLEIK
notes: also called mAb6 ID No. 12
B3: mAb6 anti-TGFβ antibody ZTS-120-2, wildtype (antibody)
heavy: QVLLVQSGADVRKPGASVKIFCKASGYTFTSNVISWVRQTPAQGFEWMGGVIPIVDIANYAQRFKGRLVLTADTSTNTAYMELRSLKSADTAVYYCASTLGLVLDAMDYWGQGSLVTVSSASTTAPSVFPLAPSCGTTSGATVALACLVLGYFPEPVTVSWNSGALTSGVHTFPAVLQASGLYSLSSMVTVPSSRWLSDTFTCNVAHPPSNTKVDKTVRKTDHPPGPKPCDCPKCPPPEMLGGPSIFIFPPKPKDTLSISRTPEVTCLVVDLGPDDSDVQITWFVDNTQVYTAKTSPREEQFNSTYRVVSVLPILHQDWLKGKEFKCKVNSKSLPSPIERTISKAKGQPHEPQVYVLPPAQEELSRNKVSVTCLIKSFHPPDIAVEWEITGQPEPENNYRTTPPQLDSDGTYFVYSKLSVDRSHWQRGNTYTCSVSHEALHSHHTQKSLTQSPGK
light: EIQMTQSPSSLSASPGDRVTITCRASQSLGSSYLAWYQQKPGKVPKLLIYGASSRAPGVPSRFSGSGSGTDFTLTISSLEPEDAATYYCQQYADSPITFGQGTKLEIK
notes: also called mAb6 ID No. 14
B4: mAb6 anti-TGFβ antibody ZTS-120-3, wildtype (antibody)
heavy: QVLLVQSGAEVRTPGASVKIFCKASGYGFTSNVISWVRQSPAQGLEWMGGVIPIVDIANYAQRFKGRLTLTADTSTDTAYMELSSLRSADTAMYYCASTLGLVLDAMDYWGQGTLVTVSSASTTAPSVFPLAPSCGTTSGATVALACLVLGYFPEPVTVSWNSGALTSGVHTFPAVLQASGLYSLSSMVTVPSSRWLSDTFTCNVAHPPSNTKVDKTVRKTDHPPGPKPCDCPKCPPPEMLGGPSIFIFPPKPKDTLSISRTPEVTCLVVDLGPDDSDVQITWFVDNTQVYTAKTSPREEQFNSTYRVVSVLPILHQDWLKGKEFKCKVNSKSLPSPIERTISKAKGQPHEPQVYVLPPAQEELSRNKVSVTCLIKSFHPPDIAVEWEITGQPEPENNYRTTPPQLDSDGTYFVYSKLSVDRSHWQRGNTYTCSVSHEALHSHHTQKSLTQSPGK
light: B3 light
notes: also called mAb6 ID No. 16
B5: mAb6 anti-TGFβ antibody ZTS-120-4, wildtype (antibody)
heavy: B3 heavy with T30S, I34M, S35H, G50S, N59T, Q62R, K65Q, S98R
light: B3 light
notes: also called mAb6 ID No. 18
B6: mAb6 anti-TGFβ antibody ZTS-120-5, wildtype (antibody)
heavy: DVQLVESGGDLVKPGGSLRLTCVASGYTFSSNVMHWVRQAPGKGLQWVAYVIPIVDIAYYADSVKGRFTISIDNSKNTLYLQMNSLKTEDTATYYCARTLGLVLDAMDYWGQGTLVTVSSASTTAPSVFPLAPSCGTTSGATVALACLVLGYFPEPVTVSWNSGALTSGVHTFPAVLQASGLYSLSSMVTVPSSRWLSDTFTCNVAHPPSNTKVDKTVRKTDHPPGPKPCDCPKCPPPEMLGGPSIFIFPPKPKDTLSISRTPEVTCLVVDLGPDDSDVQITWFVDNTQVYTAKTSPREEQFNSTYRVVSVLPILHQDWLKGKEFKCKVNSKSLPSPIERTISKAKGQPHEPQVYVLPPAQEELSRNKVSVTCLIKSFHPPDIAVEWEITGQPEPENNYRTTPPQLDSDGTYFVYSKLSVDRSHWQRGNTYTCSVSHEALHSHHTQKSLTQSPGK
light: B3 light
notes: also called mAb6 ID No. 20
B7: mAb6 anti-TGFβ antibody ZTS-120-6, wildtype (antibody)
heavy: B3 heavy with T30S, I34M, S35H, G50S, N59T, Q62R, K65Q, S98R
light: DIVLTQPPSLSVNLGQTARITCRASQSLGSSYLAWYQQKPGQAPKLVTYGASSRAPGIPDRFSGTNSGITATLTISGARAEDEADYYCQQYADSPITFGQGTKLEIK
notes: also called mAb6 ID No. 22
B8: mAb6 anti-TGFβ antibody ZTS-120-7, wildtype (antibody)
heavy: B6 heavy
light: B7 light
notes: also called mAb6 ID No. 24
B9: mAb6 anti-TGFβ antibody ZTS-120-8, wildtype (antibody)
heavy: B3 heavy
light: DIVMTQSPGSLAGSPGQQVTMNCRASQSLGSSYLAWYQQKPGQHPELLIYGASSRAPGVPDRFSGSGSGTDFTLTISNLQAEDVANYYCQQYADSPITFGQGTKLEIK
notes: also called mAb6 ID No. 26
B10: mAb6 anti-TGFβ antibody ZTS-120-9, wildtype (antibody)
heavy: B6 heavy
light: B9 light
notes: also called mAb6 ID No. 28

biological target: T1, Feline FcRn (complex of FcRn-α subunit and β-microglobulin, C-terminal His tag) (feline, UniProt A0ABI7ZNY9 23-296; Q5MGS7 21-118); assay: SPR Biacore, FcRn on sensor, pH 6; pH 6
T1 construct: treated here as one molecule
Method: As discussed in the above Example section, Feline FcRn was isolated, prepared and mutant Fc IgGs were assayed against feline FcRn according to Strietzelg et. al. Standard RACE PCR was used to amplify feline FcRn-α subunit and β-microglobulin. FcRn-α subunit and β-microglobulin were co-transfected into HEK 293 cells and the FcRn complex was purified by IMAC affinity purification via the c-terminal His tag. KD's were measured by Biacore 3000 or Biacore T200 (GE Healthcare, Pittsburgh, PA, USA) using a CM5 sensor chip.
FcRn was captured on the surface of the sensor using a modified SA capture method. 10 mM MES; 150 mM NaCl; 0.005% Tween20; 0.5 mg/mL BSA; pH6 was used as capture, method running buffer and titrations. 1×HBS-P, 0.5 mg/mL BSA; pH7.4 was also used for method running buffer and titrations. Fc mutant IgGs were flowed over receptor surfaces and affinity was determined using T200 evaluation software or Biacore Insight Evaluation software. Blank runs containing buffer only were subtracted out from all runs. Flow cells were regenerated using 50 mM Tris pH8 or pH9. Runs were performed at 15° C.

First: B1
Second: B2
The Kd of the first is 4.2-fold higher: 147 nM for the first, 35.2 nM for the second. The second binds more tightly here.

B3 and B4 are within 1.5-fold of each other in Kd: 22.3 nM for the first, 20.5 nM for the second.

Going from B5 to B6, the Kd rises from 19.6 nM to 31.6 nM (1.6-fold). The first binds more tightly here.

Going from B7 to B8, the Kd rises from 14.3 nM to 30.2 nM (2.1-fold).

B9 and B10 are within 1.5-fold of each other in Kd: 35.7 nM for the first, 44.3 nM for the second.
